According to patent US20110172126A1, “LIBRARIES OF PEPTIDE CONJUGATES AND METHODS FOR MAKING THEM” (XENOME LTD, priority 2008, published 2011):
*1 amine or outer side, *2 acyl side, *3 side chain or, on linkers, in order; H or OH if unused. Bridges are numbered along the chain shown (N, C = ends). Where no end group is shown, it is not given here. [ ]: non-standard residue; d: D form. The star is where a group is joined. 12302 = turn inducer derived from (2S,4R)-Fmoc-4-amino-1-BOC-pyrrolidine-2-carboxylic acid, O=C([C@@H]1C[C@@H](N[*:1])CN1[*:3])[*:2]; Isovaleryl = CC(C)CC(=O)*

How the values were obtained:
Assay type in all cases: binding
[1] = target: T1, human norepinephrine transporter (hNET) (Homo sapiens, UniProt P23975); conditions: single concentration 10 μM, 3H-nisoxetine displacement
T1 construct: purchased Perkin Elmer Life Sciences RBHNETM400UA
T1 sequence (P23975 whole entry): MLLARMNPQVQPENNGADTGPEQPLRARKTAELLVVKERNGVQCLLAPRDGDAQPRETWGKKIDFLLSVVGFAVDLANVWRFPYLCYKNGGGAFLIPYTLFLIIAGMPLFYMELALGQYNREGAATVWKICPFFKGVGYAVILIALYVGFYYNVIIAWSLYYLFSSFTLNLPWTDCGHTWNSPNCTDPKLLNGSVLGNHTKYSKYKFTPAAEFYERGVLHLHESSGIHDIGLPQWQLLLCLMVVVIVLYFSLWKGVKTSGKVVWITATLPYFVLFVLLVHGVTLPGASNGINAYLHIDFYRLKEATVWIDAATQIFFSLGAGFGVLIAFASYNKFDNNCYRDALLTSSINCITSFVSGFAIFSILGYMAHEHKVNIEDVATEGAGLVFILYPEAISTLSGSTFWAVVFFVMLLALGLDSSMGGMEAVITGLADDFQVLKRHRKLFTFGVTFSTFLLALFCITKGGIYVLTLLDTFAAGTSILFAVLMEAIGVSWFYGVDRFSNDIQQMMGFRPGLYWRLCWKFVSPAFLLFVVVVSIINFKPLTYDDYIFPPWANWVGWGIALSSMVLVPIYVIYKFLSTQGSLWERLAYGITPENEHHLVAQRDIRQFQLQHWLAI
Method: The ability of compounds to act as inhibitors of the human norepinephrine transporter (hNET) was measured by competitive inhibition of ^3H-nisoxetine from membrane expressing hNET.
Total assay volume 150 μL (50 μL peptide conjugate, 50 μL tritiated compound and 50 μL membrane) with each data point performed in triplicate. Assay buffer used was TrisHCl (50 mM, pH 7.4), NaCl (120 mM) and KCl (5 mM). Peptide conjugates were initially screened at a single concentration of 10 μM. […] After the addition of the membrane the assay was incubated for 1 h at RT after which the reaction was filtered onto GF filtermats B (Perkin Elmer cat #1450-521) pretreated with 0.6% PEI using a Tomtec cell harvester and washed 3 times using wash buffer (20 mM HEPES pH 7.4, 125 mM NaCl @ 4° C.). Filtermats were then dried, placed in a filter bag, 9 mL betaplate scintillant (Perkin Elmer cat #1205-440) added and filtermats counted on a Wallac Microbeta instrument.

[2] = target: T2, rat sodium channel 1.2 (rNav1.2) (Rattus norvegicus, UniProt P04775); experiment: rat Nav1.2 channel assay: competitive inhibition of 125H-TIIIA from rat brain homogenate; conditions: single concentration 10 μM
T2 construct: from tissue; host or cells: rat brain homogenate / rat brain membrane
T2 sequence (P04775 whole entry): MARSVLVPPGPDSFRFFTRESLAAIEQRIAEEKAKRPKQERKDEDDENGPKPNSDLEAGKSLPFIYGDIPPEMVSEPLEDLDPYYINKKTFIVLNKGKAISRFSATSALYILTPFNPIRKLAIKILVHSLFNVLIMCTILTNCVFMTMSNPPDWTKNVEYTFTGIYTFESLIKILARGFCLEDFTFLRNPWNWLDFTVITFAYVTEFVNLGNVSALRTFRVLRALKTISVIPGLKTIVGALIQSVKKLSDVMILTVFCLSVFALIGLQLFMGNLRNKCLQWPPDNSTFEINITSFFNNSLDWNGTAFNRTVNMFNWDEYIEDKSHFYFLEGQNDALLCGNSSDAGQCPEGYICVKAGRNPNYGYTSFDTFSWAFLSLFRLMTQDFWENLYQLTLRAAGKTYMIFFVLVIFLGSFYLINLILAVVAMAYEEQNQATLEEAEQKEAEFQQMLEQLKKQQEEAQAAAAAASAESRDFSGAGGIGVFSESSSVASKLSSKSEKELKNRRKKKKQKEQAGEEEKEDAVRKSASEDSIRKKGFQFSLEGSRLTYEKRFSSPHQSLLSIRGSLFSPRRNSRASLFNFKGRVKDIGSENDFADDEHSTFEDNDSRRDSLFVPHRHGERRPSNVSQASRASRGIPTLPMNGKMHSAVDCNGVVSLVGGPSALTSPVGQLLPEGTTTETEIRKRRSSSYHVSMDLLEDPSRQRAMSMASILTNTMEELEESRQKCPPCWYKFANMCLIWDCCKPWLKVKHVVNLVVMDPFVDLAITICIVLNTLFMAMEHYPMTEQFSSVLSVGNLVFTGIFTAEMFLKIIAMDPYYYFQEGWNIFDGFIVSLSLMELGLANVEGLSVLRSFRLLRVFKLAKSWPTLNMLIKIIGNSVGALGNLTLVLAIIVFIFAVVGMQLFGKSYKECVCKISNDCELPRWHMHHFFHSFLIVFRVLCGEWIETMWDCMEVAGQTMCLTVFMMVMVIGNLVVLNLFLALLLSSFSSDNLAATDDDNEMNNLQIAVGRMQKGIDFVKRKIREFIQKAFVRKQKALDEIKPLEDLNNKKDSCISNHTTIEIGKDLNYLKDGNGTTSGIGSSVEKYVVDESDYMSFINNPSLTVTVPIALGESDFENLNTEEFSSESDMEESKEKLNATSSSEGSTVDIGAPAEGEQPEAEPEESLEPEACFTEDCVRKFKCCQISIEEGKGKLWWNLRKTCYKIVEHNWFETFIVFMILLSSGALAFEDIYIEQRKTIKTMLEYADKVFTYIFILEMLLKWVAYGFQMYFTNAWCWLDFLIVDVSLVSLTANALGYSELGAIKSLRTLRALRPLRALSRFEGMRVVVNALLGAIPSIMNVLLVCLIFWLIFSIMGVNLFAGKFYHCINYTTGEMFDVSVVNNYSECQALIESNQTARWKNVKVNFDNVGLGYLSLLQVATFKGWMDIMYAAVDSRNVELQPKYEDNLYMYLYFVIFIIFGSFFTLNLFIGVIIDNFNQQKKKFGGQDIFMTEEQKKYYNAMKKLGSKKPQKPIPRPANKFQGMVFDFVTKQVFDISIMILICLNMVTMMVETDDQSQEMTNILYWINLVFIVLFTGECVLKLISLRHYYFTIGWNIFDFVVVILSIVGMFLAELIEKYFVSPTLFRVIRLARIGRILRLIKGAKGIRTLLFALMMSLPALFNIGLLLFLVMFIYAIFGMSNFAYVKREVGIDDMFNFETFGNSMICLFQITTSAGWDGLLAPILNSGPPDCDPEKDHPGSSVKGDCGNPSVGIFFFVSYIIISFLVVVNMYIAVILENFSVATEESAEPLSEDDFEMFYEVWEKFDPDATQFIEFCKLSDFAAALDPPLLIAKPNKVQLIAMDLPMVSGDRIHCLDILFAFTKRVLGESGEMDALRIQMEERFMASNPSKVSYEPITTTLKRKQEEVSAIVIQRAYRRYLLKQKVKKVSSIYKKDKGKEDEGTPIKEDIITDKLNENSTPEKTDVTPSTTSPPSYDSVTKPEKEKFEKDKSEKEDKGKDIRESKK
Method: A homogeneous assay was used to determine the ability of compounds to act as inhibitors of the rat sodium channel 1.2 (rNav1.2) as measured by competitive inhibition of ^125H-TIIIA from rat brain homogenate.
Total assay volume was 80 μL (20 μL competing ligand, 20 μL, SPA beads, 20 μL rat brain homogenate and 20 μL iodinated ligand). Assay buffer used was HEPES (20 mM pH7.2), MgCl2 (75 mM), EDTA (0.2 mM), EGTA (0.2 mM), BSA (0.1%) and 2% diluted protease inhibitors (Roche cat #1826145). Peptides were initially screened at a single concentration of 10 μM. […] The competing ligands were added to the assay plate followed by Flashblue GPCR scintillating beads at a concentration of 100 μg/well (Perkin Elmer cat #FBB001), rat brain membrane and 30 pM ^125H-TIIIA. After the addition of all reagents the plate was sealed and incubated at RT for 1 h with shaking. The plate was then counted on a Wallac Microbeta instrument.

[3] = target: T3, human delta2 Opioid Receptor (hδ2OR) (Homo sapiens, UniProt P41143); experiment: hδ2OR assay: competitive inhibition of 3H-Naltrindole from membrane expressing hδ2OR; conditions: single concentration 10 μM
T3 construct: purchased Perkin Elmer Life Sciences RPNQ001
T3 sequence (P41143 whole entry): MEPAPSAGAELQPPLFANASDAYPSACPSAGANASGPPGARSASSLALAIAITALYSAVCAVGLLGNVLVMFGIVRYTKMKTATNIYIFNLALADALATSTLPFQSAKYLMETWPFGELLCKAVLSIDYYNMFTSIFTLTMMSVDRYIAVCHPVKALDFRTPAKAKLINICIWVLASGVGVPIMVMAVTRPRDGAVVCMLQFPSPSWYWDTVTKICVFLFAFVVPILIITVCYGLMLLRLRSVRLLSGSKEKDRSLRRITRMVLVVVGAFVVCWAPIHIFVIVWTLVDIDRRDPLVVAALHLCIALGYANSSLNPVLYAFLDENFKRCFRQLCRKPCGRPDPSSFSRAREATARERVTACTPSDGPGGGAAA
Method: A homogeneous assay was used to determine the ability of compounds to act as inhibitors of the hδ2OR as measured by competitive inhibition of ^3H-Naltrindole from membrane expressing hδ2OR.
Total assay volume was 80 μL (20 μL competing ligand, 20 μL SPA beads, 20 μL, membrane and 20 μL tritiated ligand). Assay buffer used was Tris HCl (50 mM, pH 7.4), MgCl2 (5 mM) and BSA (0.1%). Peptides were initially screened at a single concentration of 10 μM. Confirmation of any hits was performed using full dose response of the peptide using various concentrations (10^−4 to 10^−11M) or control ligand (Naltriben). The competing ligands were added to the assay plate followed by SPA beads at a concentration of 100 μg/well (GE Healthcare, Amersham Cat. #FBB001) and […] (Perkin Elmer Life Sciences Cat #RPNQ001). This was followed by 1.6 nM […] [for a final concentration 0.4 nM] (Perkin Elmer Cat #NET1065), after which the plate was sealed and incubated at RT for 1 hr with shaking. The plate was then counted on a Wallac Microbeta instrument.

Row | Substance | % inhib @ 10 μM [1] [%] | % inhib @ 10 μM [2] [%] | % inh @ 10 μM [3] [%]
1 | 6 (CV[H2NNH:CHNH(CH2)3CO]KC; disulfide 1-5 (inferred); not fully specified) [compound 6] | 94 | >70 | –
2 | 46 (CF[12302](cyclohex‑CH2—CO)YC; disulfide 1-5 (inferred)) [compound 46] | – | – | >80
3 | 47 (CF[12302](Isovaleryl)YC; disulfide 1-5 (inferred)) [compound 47] | – | – | >80
